Experiment: yeast display, Sf9 membrane polyspecificity reagent, FACS + sequencing; frameworks hold sequencing errors
Procedure, shortened: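 In a synthetic yeast display library (Saccharomyces cerevisiae BJ5465), nanobody expression was induced with galactose for 36–48 hours. FACS gates were set low and high (top ~1%) using anti-HA fluorescence for expression and streptavidin fluorescence for binding of the Sf9 membrane reagent. Each polyreactivity label is drawn from the gate of origin.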

Sequence | polyreactivity (PSR sort gate)
QVQLVESGGGLVQAGGSLRLSCAASGTTFVSYSMGWYRQAPGKEREFVATISISGTSTYYADSVKGRFTISRDNAKNTVYLQMISLKPEDTAVYYCAARLRRRGATQFYRYDYWGQGTQVTVSS | high polyreactivity
QVQLVESGGGLVQAGGSLRLSCAASGTTFVYYAMVWYRQAPGKERYLVAAITWNGGSTYYADSVKGRFTISRDNAKNTVYFQMNSLKPEDTAVYYCNAAFRAGAVYGYYWGQGTQVTVSS | high polyreactivity
QVQLVESGGGLVQAGGSLRLSCAASGTTFWRYTMGWYRQAPGKERELVAAISTRGGSTTYADSVKGRFTISRDKAKNNVYLQMNSLKPEDTAVYYCNADGYRGYYGRNKSKYDYWGQGTQVTVSS | high polyreactivity
QVQLVESGGGLVQAGGSLRLSCAASGTTFYSNAMGWYRQAPGKEREFVAAISYSGGSTYYADSVKGRFTISRDNAKYTVYLQMNSLKPEDTAVYYCNARNWYYDGDYWVQGTQVTVSS | high polyreactivity
QVQLVESGGGLVQAGGSLRLSCAASGTTIKYYAMGWSRQAPGKERELVARITSDGGSTFYADSVKGRFTISRDNAKNTVYLQMNSLKPEDTAVYYCNTAYAFRHWWFYPMDYWGQGTQVTVSS | high polyreactivity
QVQLVESGGGLVQAGGSLRLSCAASGTTLGYYTMGWYRQAPGKERELVAAIDWSGGSTYYADSVKGRFTISRDNAKNTVYLQMNSLKPEDTAVYYCNAEPWDPFYSPGRGGMDYWGQGTQVNVSS | low polyreactivity
QVQLVESGGGLVQAGGSLRLSCAASGVIFESNAMAWYRQAPGKERELVAANTKRGGSTYYADSVKGRFTISRDNAKNTVYLQMKSLKPEDTAVYYCNALGYWRRVVDGFDNWGQGTQVTVSS | high polyreactivity
QVQLVESGGGLVQAGGSLRLSCAASGVIFKAYAMGWYRPAPGKERELVAAITSSGGRTYYADSVKGRFTISRDNAKNTVYLQMNSLKPEDSAVYYCNARGVLRTSLYRYDYWGQGTQLTVSS | high polyreactivity
QVQLVESGGGLVQAGGSLRLSCAASGVIFRRYAMGWYREAPGKERELVAAMSSSGGRTTYADSVNGRFTISRDNAKNTVYIQMNSLKPEDTAVYYCNADLWPGNHDGYWGQGTQVTVSS | low polyreactivity
QVQLVESGGGLVQAGGSLRLSCAASGVTFGGYAMGWYRQAPGKERELVAAISGSGGRTYYADSVKVRFTISRDNAMNTVYLQMNSLKPEDTAVYYCAADRASPYLENYWGQGTQVTVSS | low polyreactivity
QVQLVESGGGLVQAGGSLRLSCAASGYFDRNAMGWDRQAPGKERELVAAITVGGSTNYADSVKGRFTISRDNAKNSVYVQMNSLKPEDTAVYYCAADRGHTILHGGYWGQGTQVTVSS | low polyreactivity
QVQLVESGGGLVQAGGSLRLSCAASGYIFAGYALGWYRQAPGKERELVARISRRGGITYYADSVKGRFTISRDNAKNTVYLQMNSLKPEDTAVYYCNGLGQSSSYDYWGQGTQVTVSS | high polyreactivity
QVQLVESGGGLVQAGGSLRLSCAASGYIFAWYAMGWYRQAPGIVRELVAAISRSGGSTYYADSVKGRFTISRDNAKHTDYLQMNSLKPEDTAVYYCNAYSAYDEYDYWGQGTQVTVSS | high polyreactivity
QVQLVESGGGLVQAGGSLRLSCAASGYIFAYTAMGWYRQAPGKEREFVAVITRSDDSTYADSVKGRFTISRDNAKNTVYLQMNSLKPEDTAVYYCAAQPFVIDGGYRGDYWGQGTQVTVSS | low polyreactivity
QVQLVESGGGLVQAGGSLRLSCAASGYIFAYYAMGWYRQEPGKERELVADIRGRGGSTYYADSVKGRFTISRDNAKNTVYLQMNSLKTEDTAVYYCARRSPNPYSIYYYWGQGTQVTVSS | high polyreactivity
QVQLVESGGGLVQAGGSLRLSCAASGYIFDIYAMGWYRQAPGKERELVAVITRSGGGTYYADSVKGRFTISRDNAKKTVYLQMNSLKPEDTAVYYCAAESYVYGGSDYDYWGQGTQVTVSS | low polyreactivity
QVQLVESGGGLVQAGGSLRLSCAASGYIFDRYAMGWSRPAPGKERELVAAISGRGGSTYYADSVKGRFTISLDNAKNTVYLQMNSLKPEDTAVYYCNALVQGKEYYWGQGTQVTVSS | high polyreactivity
QVQLVESGGGLVQAGGSLRLSCAASGYIFDRYAMGWYRPAPGKERELVAAISVGGGTTYYADSVKGRFTISRDNAKNTVYLQMNSLKPEDTAVYYCAARSDSYAPRRGYWGQGTQVTVSS | high polyreactivity
QVQLVESGGGLVQAGGSLRLSCAASGYIFDYYDMGWYRQAPGKERELVAAINGSGGDTYYADSVKGRFTISRDNANNTVYLEMNSLKPEDTAVYYCAADLVYYSGWGYAFNYWGQGTQVNVSS | high polyreactivity
QVQLVESGGGLVQAGGSLRLSCAASGYIFEEYDMGWYRQAPGKERELVAAISASGGSTYYADSVKGRFTISRDNAKNTVYLQMNSLKPEDTAVYYCAADAVREVYGSWDDYWGQGTQVTVSS | low polyreactivity
QVQLVESGGGLVQAGGSLRLSCAASGYIFEIYAMGWYRQAPGKERELVAAISTRGGRTYYADSVKGRFTISRDNAKNTVYLEMKSLKPEDTAVYYCARESSIVPYGYWGQGTQVTVSS | low polyreactivity
QVQLVESGGGLVQAGGSLRLSCAASGYIFGGYAMGWYRQATGKERELVPGISIGVGSTYYADSVKGRFTISRDNAKNTVYLQMNSLKPEDSAVYYCNRVSVGYDYWGQGTQVTVSS | low polyreactivity

Sequence | polyreactivity (PSR sort gate)
QVQLVESGGGLVQAGGSLRLSCAASGYIFGRNAMGWYRQAPGKERELVAVISSRGSRTYYADSVKGRFTISRDNAKNTVYLQMNSLKPEDTAVYYCAVRGVVNFDYWGQGTQVTVSS | high polyreactivity
QVQLVESGGGLVQAGGSLRLSCAASGYIFGSNAMGWYRQAPGKDRELVAGISNNGGSTYYADSVKGRFTISRDKAKNTVYLQMNSLKPEDTAVYYCARDPNDDNSFPYDYWGQGTQVTVSS | low polyreactivity
QVQLVESGGGLVQAGGSLRLSCAASGYIFGSYTMGWYRQAPGKERELVAGISRRGGGTYYADSVKGRFTMSRDNAKNNVYLQMNSLIPEDTAVYYCAAEVITIGLYRYGFWGQGTQVSVSS | high polyreactivity
QVQLVESGGGLVQAGGSLRLSCAASGYIFGSYVMGGYRQAPGKERELVAAITRIGASTYYADSVKGRFTISRDNAKNTVYLQMNSLKPEDTAVYYCATDQGGYYENDYWGQGTQVTVSS | low polyreactivity
QVQLVESGGGLVQAGGSLRLSCAASGYIFGTDAMGRYRQAPGKERELVAAISSTGRTYYADSVKGRFTISRDNAKNTVYLQMNSLKPEDTAVYYCAADVRTPSEGYDYWGQGTQVTVSS | high polyreactivity
QVQLVESGGGLVQAGGSLRLSCAASGYIFGVNALGWYRQAPGKERELVAAIDSGSRTYYADSVKGRFTISRDNAKNTVYLQMNSLKPEDTAVYYFATTFYVSYGGGYYTIWYDYWGQGTQVTVSS | low polyreactivity
QVQLVESGGGLVQAGGSLRLSCAASGYIFGWNAMGWYRQAPGKERELVAAISSSGGNTYYADSVKGRFTISRDNAKNTVYLQMNSLKPEDTAVYYCARSYPYRYDYWGQGTQVTVSS | low polyreactivity
QVQLVESGGGLVQAGGSLRLSCAASGYIFGWYTMGWYRQAPGKERELVAAISGGGRTYYADSVKGRFTISRDNAKNTVYLQMNSLKPEDTAVYYCNDYSSYIKYDYWGQGTQVTVSS | high polyreactivity
QVQLVESGGGLVQAGGSLRLSCAASGYIFGYYAMGWYRQAPGQEREFVAAINWSGGSTYYADSVNGRFTISRDNAKNTVYLQMNSLKPEDTAVYYCARSYRSRVVYKFGYWGQGTQVTVSS | high polyreactivity
QVQLVESGGGLVQAGGSLRLSCAASGYIFGYYVMGWYRQAPGKERELVAAISGRGGRTYYADSVKGRFTISRDNAMNTVYLQMNSLKPEDTAVYYCAAADLPGTMYYWGQGTQVTVSS | high polyreactivity
QVQLVESGGGLVQAGGSLRLSCAASGYIFGYYVMGWYRQAPGKERELVAAITGRGGSTYYADSVKGRFTISRDNAKNTVSLQMNSLKPEDTAVYYCAADATTYPYDPWHLYEIWEYYYWGQGTQVTVSS | low polyreactivity
QVQLVESGGGLVQAGGSLRLSCAASGYIFHDNAMGWYRQAPGKERELVAGITTGGSTYYADSVKGRFTISRDNAKYTVYLQMNSLKPEDTAVYYCAAKVWSRSFYKYYYWGQGTQVTVSS | high polyreactivity
QVQLVESGGGLVQAGGSLRLSCAASGYIFHRYAMGWYRQAPGKERELVAAISWRVTSTFYADSVKGRFTISRDNAKNTVYLQMNCLKPEDTAVYYCASVKWVGYKYWSSRKYDYWGQGTQVTVSW | high polyreactivity
QVQLVESGGGLVQAGGSLRLSCAASGYIFHSYVMGWYRQAPGKERELVAAITSDDDSTFYADSVKGRFTISRDNAKNTVYLQMNSLKPEETGVYYCAADGYYQYDKDTYYSTSDYWGQGTQVTVSS | low polyreactivity
QVQLVESGGGLVQAGGSLRLSCAASGYIFIRNAMGWYRPAPGKDRELVAAISWTGGNTYYADSVKGRFTISRDNAKNTVYLQMNSLKPEDTAVYYCAALRSVFKSFRTTYVRYDYWGQATQVTVSS | high polyreactivity
QVQLVESGGGLVQAGGSLRLSCAASGYIFIWYDMGWYRQAPGKERELVAAISGSGGSTYYADSVKGRFTISRDNAKNTVYLQMNSLKPEDTAVYYCAAYVPRGNSEVIAMDYWGQGTQVTVSS | low polyreactivity
QVQLVESGGGLVQAGGSLRLSCAASGYIFKIKAMGWYRQAPGKERELVATITWSTGTTYYADSVKGRFTISRDNAKNTVYLQMNSLKPEDTAVYYCNATAIIRIGVLPGDYWGQGTQVTVSS | low polyreactivity
QVQLVESGGGLVQAGGSLRLSCAASGYIFKRYAIGWNRQAPGKERELVAAISGNGGSTYYADSVKGRFTISRDNAKNTVYFQMNSLKPEDTAVYYCNKSGYYSPTSKGEYWGQGTQVTVSS | low polyreactivity
QVQLVESGGGLVQAGGSLRLSCAASGYIFKRYAMGWYRQAPGKERELVAAISSRGGSTYYADSVKGRFTISRDNAKNTVYLQMNSLKPEDTAVYYCAAVSWFRNYYWGQGTQVTVSS | high polyreactivity
QVQLVESGGGLVQAGGSLRLSCAASGYIFKYNTMGWYRQAPGKERELVAAISTGGNTYYADSVKGRFTISRDNAKNTVYLQMNSLKPEDTAVYYCAALSGAHEHFVEYDYWGQGTQVTVSS | low polyreactivity
QVQLVESGGGLVQAGGSLRLSCAASGYIFLAYAMGWYRQAPGKERELVADNTYADSVKGRFTISRDNAKNTVYLQMNSLKPEDTAVYYCNADEVYDEYSYDYWGQGTQVTVSS | low polyreactivity

Source: the nanobody polyreactivity screen of Harvey et al. (2022)
